Here are results for four molecules from PMC3659392 (Science translational medicine, 2012).

For data set [1], the target named is T1, DprE1 (Mycolicibacterium smegmatis, UniProt A0R607).
T1 sequence (A0R607 1-460): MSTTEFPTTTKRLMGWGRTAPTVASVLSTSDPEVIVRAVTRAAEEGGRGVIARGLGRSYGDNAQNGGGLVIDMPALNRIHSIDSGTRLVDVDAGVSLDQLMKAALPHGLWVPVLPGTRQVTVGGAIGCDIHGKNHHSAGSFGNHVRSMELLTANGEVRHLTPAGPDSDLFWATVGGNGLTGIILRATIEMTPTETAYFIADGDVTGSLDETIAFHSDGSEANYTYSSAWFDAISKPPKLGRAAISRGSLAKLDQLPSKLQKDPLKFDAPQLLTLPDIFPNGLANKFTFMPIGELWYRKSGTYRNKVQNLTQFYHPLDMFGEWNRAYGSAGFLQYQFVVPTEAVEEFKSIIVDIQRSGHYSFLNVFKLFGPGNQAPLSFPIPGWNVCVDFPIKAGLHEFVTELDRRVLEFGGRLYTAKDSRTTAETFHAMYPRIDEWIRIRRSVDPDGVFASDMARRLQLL
In words: DCPIP enzyme assay, […] min incubation. The data set is classed as biochemical.

The target of data set [2] is T1, DprE1. In words: crystal structure of covalent adduct. The data set is classed as biochemical.
Substrate in data set [3]: CC(C)=CCC/C(C)=C/CC/C(C)=C/COP(=O)(O)O[C@@H]1O[C@H](CO)[C@@H](O)[C@H]1O
As to the kind of experiment: purified protein. As to conditions: FAD; pH 8.5.

Substrate in data set [4]: O=C1C(Cl)=CC(=Nc2ccc(O)cc2)C=C1Cl
As to the kind of experiment: purified protein. As to conditions: FAD electron acceptor re-oxidizing reduced FAD.

In general, IC50 refers to the midpoint of a concentration-inhibition curve. Low values mean higher potency, high ones lower potency. `C[C@H]1COC2(CCN(c3nc(=O)c4cc(C(F)(F)F)cc(NO)c4s3)CC2)O1` [BTZ046]: the IC50 in data set [1] is 19.7 µM.

`C[C@H]1COC2(CCN(c3nc(=O)c4cc(C(F)(F)F)cc([N+](=O)[O-])c4s3)CC2)O1` [BTZ043] registered a concentration for half-maximal inhibition (IC50) in data set [2] of 4.5 µM.

For `C[C@H]1COC2(CCN(c3nc(=O)c4cc(C(F)(F)F)cc(N)c4s3)CC2)O1` [BTZ045], in data set [1], it took 11 µM to reach half-maximal inhibition (IC50).

B1: DprE1 (Mycolicibacterium smegmatis MC2 155) (protein)
chain: T1 sequence (A0R607 1-460)
Broadly, the Km is the substrate concentration at which the rate is half of its maximum. What is called kcat is the maximal rate divided by the concentration of active sites. What is called kcat/Km is the second-order rate constant that governs catalysis at low substrate concentration. Turning to B1, in data set [3], the Km turned out to be 110 µM, the kcat was determined as 0.212 ± 0.01 s⁻¹ and the catalytic efficiency (kcat/Km) stood at 1930 ± 182 M⁻¹ s⁻¹. The Km in data set [4] came out at 4.2 µM.
